Data as given in article PMC8850199, “Structure, mechanism and lipid-mediated remodeling of the mammalian Na^+/H^+ exchanger NHA2” (Nature Structural & Molecular Biology, 2022).

Molecular target: the molecule itself
Assay: native MS; detergent-purified NHA2ΔN exchanged into C12E9, ~20 μM, Q-Exactive Orbitrap modified for high m/z

B1: bison NHA2ΔN (SLC9B2 without the first 69 residues), GFP-TwinStrep-His8 tag removed with TEV protease (domain or fragment, Bison bison)
chain: RRRQIHACPPRGLLARVITNVTMVILLWAVVWSVTGSECLPGGNLFGIIMLFYCAIIGGKLFGLIKLPTLPPLPPLLGMLLAGFLIRNVPVISDNIQIKHKWSSALRSIALSVILVRAGLGLDSNALKKLKGVCVRLSLGPCLIEACTSAVLAYFLMGLPWQWGFMLGFVLGAVSPAVVVPSMLLLQEGGYGVEKGIPTLLMAAGSFDDILAITGFNTCLGMAFSTGSTVFNVLKGVLEVIIGVVTGLVLGFFIQYFPSSDQDNLVWKRAFLVLGLSVLAVFSSTYFGFPGSGGLCTLVTAFLAGRGWASTKTDVEKVIAVAWDIFQPLLFGLIGAEVLITALRPETIGLCVATLGIAVLIRILVTYLMVCFAGFNIKEKIFISFAWLPKATVQAAIGSVALDTARSHGEKQLEGYGMDVLTVAFLSIIITAPVGSLLIGLLGPRLLQKAEQNKDEEDQGETSIQV
notes: Na+/H+ exchanger NHA2 (SLC9B2), Bison bison, without the first 69 residues of the N-terminal tail; numbers count on: the full-length bison NHA2 as printed; residues of it stay on the C-terminus after digestion; also called biNHA2ΔN; source: S. cerevisiae FGY217, purified (DDM/CHS, Ni-NTA, TEV digestion, SEC); for nanodiscs reconstituted as GFP fusion with MSP1E2 and yeast PI, then TEV digestion …
stoichiometry N: 2
